Measurements: patent publication US20110014218A1 (UNIVERSITY OF NORTH CAROLINA AT CHAPEL HILL, published 2011)

B1: chloramphenicol acetyl-transferase protein containing C-terminal V5-epitope and 6x-histidine tags (CAT) (enzyme)
chain: MEKKITGYTTVDISQWHRKEHFEAFQSVAQCTYNQTVQLDITAFLKTVKKNKHKFYPAFIHILARLMNAHPEFRMAMKDGELVIWDSVHPCYTVFHEQTETFSSLWSEYHDDFRQFLHIYSQDVACYGENLAYFPKGFIENMFFVSANPWVSFTSFDLNVANMDNFFAPVFTMGKYYTQGDKVLMPLAIQVHHAVCDGFHVGRMLNELQQYCDEWQGGA
notes: Negative control protein expressed from the same expression vector as S20NS in High Five cells
B2: S20NS (Salp20 protein containing C-terminal V5-epitope and 6x-histidine tags) (other)
chain: SEDGLEQDSKVETTTQNLYERHYRNNSGLCGAQYRNSSHAEAVYNCTLSLLPPKVNETWEGIRHRINKSIPEFVRLMCNFSVVMPEDFYLVYMGSNGNSYSEEDEESTDTDKDSKTGSSAAVEVTEKLILKAEENCTAHITGWTTEAPTTLEPTETQFEAIS
modifications: multiple N- and O-linked glycans (insect cell expressed)
notes: Recombinant protein secreted from stably transfected High Five insect cells and purified; also called I. scapularis salivary protein 20

Columns and labels:
[1] = molecular target: T1, properdin (purified human complement component) (human, UniProt P27918 28-469); assay: ELISA, coated CAT, properdin in solution, detected with goat α-properdin Ab
T1 construct: Bought purified protein; also called fP

[2] = molecular target: T1, properdin (purified human complement …); assay: solid-phase saturation binding ELISA, S20NS coated (10 ng/well), properdin titrated

T1 sequence (P27918 28-469 limits assumed): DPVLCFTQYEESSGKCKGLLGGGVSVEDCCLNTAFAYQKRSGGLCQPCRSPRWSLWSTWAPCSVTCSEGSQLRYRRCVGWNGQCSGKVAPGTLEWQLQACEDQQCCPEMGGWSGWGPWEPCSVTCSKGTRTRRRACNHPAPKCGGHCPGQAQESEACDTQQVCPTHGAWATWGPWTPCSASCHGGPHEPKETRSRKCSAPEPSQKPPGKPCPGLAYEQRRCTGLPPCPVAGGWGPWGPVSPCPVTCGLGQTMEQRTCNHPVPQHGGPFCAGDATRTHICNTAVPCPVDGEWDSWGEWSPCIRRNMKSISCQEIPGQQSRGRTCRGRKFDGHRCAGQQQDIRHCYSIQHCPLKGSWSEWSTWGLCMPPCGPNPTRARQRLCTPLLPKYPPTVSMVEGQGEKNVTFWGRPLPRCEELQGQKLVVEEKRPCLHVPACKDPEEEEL

Binder | binding result [1] | Kd [2] [nM]
B1 | no binding | 
B2 |  | 0.669
